# Data published in the supplement of paper PMC9170038.
# System: MS2 coat protein
# Test: apparent KD of MS2 coat protein; designed switch direction (-1 OFF switch, 1 ON switch): -1; higher = weaker reporter binding
# Method in brief: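 The reported apparent KD is a per-design median over clusters, from curve fits of normalised cluster fluorescence. Protein titrations used SNAP-549-labelled MS2 coat protein, doubled from 0.7 or 1.5 nM to 3 µM, in Tris-HCl pH 7.5 buffer with KCl, MgCl2, BSA, DTT, tRNA and Tween-20, with no input, 200 uM small-molecule ligand, or an oligonucleotide input. The RNA switches were transcribed on Illumina chips by stalled E. coli RNA polymerase.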
# [1] = Eterna round: R95, input ligand: FMN 200 uM
# [2] = Eterna round: R95, input ligand: microRNA oligo, concentration not stated
# [3] = Eterna round: R95, input ligand: none
# [4] = input ligand: microRNA oligo, concentration not stated
Sequence,apparent KD of MS2 coat protein [1] [nM],apparent KD of MS2 coat protein [2] [nM],apparent KD of MS2 coat protein [3] [nM],apparent KD of MS2 coat protein (input ligand: FMN 200 uM) [nM],apparent KD of MS2 coat protein (input ligand: none) [nM],apparent KD of MS2 coat protein [4] [nM]
UCCUCACAUGAGGAUCACCCAUGUCAGGAUAUGUACCCGAUCAAGUCAGAGAUCGGAAGCAGAAGGGACUGCGG [Larebeti] (puzzle: Exclusion 1),26.5,70.7,59.2,,,
"UUCUGGACAGGAUAUGUACUUGAGCACUUGAGGAUCACCCAAGUCGUCAAGUACUCAGGCACAGAAGGGUUAAUUU [jl-ex5.4.67 ViennaUCT mod] (Eterna round: R97, puzzle: Exclusion 5)",,,,30.7,15.3,
"AAAAUACAUGAGGAUCACCCAUGUGAGGAUAUGAGCGUCAUUUAUAUAUAUUAGACGCUCAGAAGGCACAUAAA [JR_Ex1_Sub069] (Eterna round: R97, puzzle: Exclusion 1)",,,,214,44.3,
"GUUUAGUGAGGAUAUGUGGCUUCGAUCGUGCGAGGGAGGCUACAGAAGGCACAUGAGGAUCACCCAUGUUCCUC [salish99_ex4_r4_303] (Eterna round: R97, puzzle: Exclusion 4)",,,,655,42.5,
"UGUUGUCACGCAGGAUAUGUAUGAGGAUCACCCAUUAAUAAAUUUUAACCACGAGGAUCACCCGUGUAGAAGGGCGGGACAACA [pwkr exNG2 2xF5 1xFMN.14] (Eterna round: R96, puzzle: Exclusion NG 2)",,,,30.6,29.9,20.1
"AUAAUAGUAGGAGGAUAUCGCAGGAUAUGGGCCUUAAAACAUAACAUGAGGAUCACCCAUGUGCACGAGAAGGCCUGGAAAAUA [Orsolavera] (Eterna round: R96, puzzle: Exclusion NG 2)",,,,25.7,18.6,11.5
"UUAUUAUAUGUAGGAUAUGCAUAUUAUUAUUAUGCAGAAGGACAUGAGGAUCACCCAUGUAUAUUGUUGUUAUGUAUUAUAUAU [Title] (Eterna round: R96, puzzle: Exclusion NG 1)",,,,40.4,31.3,24.1
CUUUUAAAUGUGAGGAUAUACUGUUAUUAAAGUUAGUAGAAGGUACAUGAGGAUCACCCAUGUUAAUUACUCUA [JR_BME4_Sub048] (puzzle: Brourd's mod of Exclusion 4),15.1,12.5,12.6,,,
"AUGUGCACGCUGCGGUCCUACAUGAGGAUCACCCAUGUGGUCUGGUGGCGUGGGUCACCGGACUUGGCUCGUCUUGG [salish99_S_TOV1_R5_057] (Eterna round: R97, puzzle: Sensor, turn-off variant 1)",,,,22.4,24.3,
"CACCGUUACAGAGGAUAUGUCACAUGAGGAUCACCCAUGUAAUAAAUGAGAAUUUCGAAUGUAACACAGAAGGCUGGAAUCGGC [Ostricism 76 - Jieux - Exclusion NG 2] (Eterna round: R96, puzzle: Exclusion NG 2)",,,,37.1,26.5,18.1
"AAUUAUUGAUGAGGAUAUUGUGGUGAAACACGACGAGAAGGCAUAUGUCACAUGAGGAUCACCCAUGUGAGCCUUGUGGAUAUA [Ex NG1 #65] (Eterna round: R96, puzzle: Exclusion NG 1)",,,,,,43.5
"CUAGCGUAUGUAGGAUAUCGGACUGUUUCAGUCUGAGAAGGACAUGAGGAUCACCCAUGUAUUGCUACGUGAGUAGCUCGCUAG [JL ENG1 3.93] (Eterna round: R96, puzzle: Exclusion NG 1)",,,,30.1,19.6,16.8
"UAUUAGCAAGCGAGAUCCCACAUGAGGAUCACCCAUGUAAUAAAGCAUCCAGAAUUACUGGGUGCAGCUCGUCUUAU [Winner reversed engineered 11] (Eterna round: R97, puzzle: Sensor, turn-off variant 1)",,,,32.7,31,
"UUUUCUCACGUCAGGAUAUGCUAAAAGGUGACAAGGUAGAAGGGACAUGAGGAUCACCCAUGUGCUUUCAUGAG [Eternabot (L2) Solution 41] (Eterna round: R97, puzzle: Brourd's mod of Exclusion 4)",,,,15.2,13.8,
"GUAGCUGAUAAGGAUAUUGUACCUAACCUGCGUCGAGAAGGUGUCACAUGAGGAUCACCCAUGUUUAGGCAAAG [Eternabot (L2) Solution 22] (Eterna round: R97, puzzle: Exclusion 6)",,,,24.4,29.5,
"UACGAAGAGUGAGGAUAUGUGCGACAAAGUUGCACAGAAGGCACAUGAGGAUCACCCAUGUAAGCUAGGUCGAAAGACCUAGCG [Omei Exc(NG)1 Av4] (Eterna round: R96, puzzle: Exclusion NG 1)",,,,130,44.7,21
GGUUGGCGAGGAUAUACAUGAGGAUCACCCAUGUGAGUGAAAAAAGUGAGGAAGAAAAGUAGAAGGCGCUGACG [salish99_ex3_r3_008] (puzzle: Exclusion 3),288,254,196,,,

Sequence,apparent KD of MS2 coat protein [1] [nM],apparent KD of MS2 coat protein [2] [nM],apparent KD of MS2 coat protein [3] [nM],apparent KD of MS2 coat protein (input ligand: FMN 200 uM) [nM],apparent KD of MS2 coat protein (input ligand: none) [nM],apparent KD of MS2 coat protein [4] [nM]
"AGAAGUAGAAACCGAUCCUACAUGAGGAUCACCCAUGUAGCAAGACGUGCACGCGAAGCUCGUCAGACUACCAGACG [salish99_TOv1_r3_019] (puzzle: Sensor v3, turn-off variant 1)",152,175,249,,,
CCGGAAAUGAAGGAUAUAGGCGUCGAUAGACUCCUAGAAGGUCAUACAUGAGGAUCACCCAUGUGUCCUACCGG [Fiskers Ex 6 - 75] (puzzle: Exclusion 6),,14.7,,,,
"AAAUUAAUGGUAAGGAUAUGAUGCAGGAAACUGCGUCAGAAGGUACAUGAGGAUCACCCAUGUUAAACUAAUUU [Explosion 9 - Jieux - Brourd's mod of Exclusion 4] (Eterna round: R97, puzzle: Brourd's mod of Exclusion 4)",,,,18.2,14.2,
"AGCCACAGAGGAUAUACAUACAUCCAGUAGUUGAGAAAACUACAUGAGGAUCACCCAUGUAGAAGGCUGUGGCA [Omei Ex2 BD B4] (Eterna round: R97, puzzle: Exclusion 2)",,,,27.4,321,
GUAGAGUAAGGAUAUGUAGAAUAGGAUAGAAUGGUUAGAAUGCAGAAGGUACAUGAGGAUCACCCAUGUAAUGU [Excluse me!!!! 5 - Jieux - Exclusion 4] (puzzle: Exclusion 4),,21.2,,,,
GUGUAGAUAGGAUAUACGUGAGUCUAGCGAAGCUAGAUUCUACAUGAGGAUCACCCAUGUAGAAGGGUCUACAC [Fiskers Ex 2 - 27] (puzzle: Exclusion 2),,15.1,,,,
AUAAUAAAGGAGGAUAUCGUUUCGGAAACGAAACGAGAAGGUCUAACAUGAGGAUCACCCAUGUUCCUCAAAUA [Mat - Exclusion 6 - Eli Mod - D52] (puzzle: Exclusion 6),66.4,33.3,53.5,,,
"GCUAGAGCAGGAUAUUUAGAUCCUCACAUGAGGAUCACCCAUGUGGCCGAAAGGCUAAGAAGAGAAGGGCUCUAGC [Omei Ex5 E22] (Eterna round: R97, puzzle: Exclusion 5)",,,,199,789,
GGUUAUUGCAAGGAUAUGCUUUUUUUUGAUAUUGCAGAAGGUGCAACAUGAGGAUCACCCAUGUUGGAUGGGUU [JR_E6_Sub019] (puzzle: Exclusion 6),,94.1,,,,
AAUAGCUAAGGAUAUACAUGAGGAUCACCCAUGUAAAACACUACUUGGAACCGCCUCGGUAGAAGGUAGAAAAU [Arbean] (puzzle: Exclusion 3),,21.5,,,,
"AAAUAACAAGCAAAAAACCACAUGAGGAUCACCCAUGUAAAGGGUGAAGUUCGCACCCAAAAAUAAAAUAAAAAAUA [Mat - Sensor v2 - Eli mod - 173] (Eterna round: R96, puzzle: Sensor v2, turn-off variant)",,,,29.1,28.3,75
"AGUAAGCUAGGAUAUGCUUUGGGAAAGCAUUCCUUCGAUAAACUUGAGGAUCACCCAAGUAGAAGGAGCUUACU [jl-ex2.4.51 ViennaUCT mod] (Eterna round: R97, puzzle: Exclusion 2)",,,,22.9,12,
"GUAAAGAGAGGAUAUACAUGAGGAUCACCCAUGUACGACCAGCAGAAAUGGUCCUCGAGUAGAAGGCUCGGGUA [Araris] (Eterna round: R97, puzzle: Exclusion 3)",,,,239,51.7,
"CUGAGGUAGCGGUCCUAUGACAUGAGGAUCACCCAUGUACCUUGCUUCGAGCUAUUUGCUCGUCUUAUGAUUCUCGG [Mat - Sensor v3 - turn-off var 1 - JL Mod - D34] (puzzle: Sensor v3, turn-off variant 1)",538,483,493,,,
"ACGCGUGGCUAGGAUAUGCAGCAAUCUAGCCAGGCAGAAGGAGCCACAUGAGGAUCACCCAUGUGGUGAUCCUC [eternacac ex6r4 sub2] (Eterna round: R97, puzzle: Exclusion 6)",,,,8.21,11.2,
"UCUGGUCGAGGAUAUACAUGAGGAUCACCCAUGUAGAUCAACCAGCUUCGGCUGGAAUGUAGAAGGCGACCAGA [E3/5-A6] (Eterna round: R97, puzzle: Exclusion 3)",,,,149,19.8,
GUUAGUAUCUAGGAUAUCUAGUACAUAGUAUCUAGAGAAGGAGAUACAUGAGGAUCACCCAUGUUCUGUGAUCU [Exclusion 6 - 2:c] (puzzle: Exclusion 6),53,205,234,,,
